Data taken from US20050085416A1, “Biologically active complex” (priority 2002, published 2005).
Values joined by “and” are separate entries in the source; they are usually repeats but may differ in a detail not shown here. Equal values may be shown once. “Also recorded” adds a separate entry of the source. Read-outs that look alike come from different tables or passages of the source.

Key:
[1] = cited from earlier work; for calcium binding: point mutants of bovine α-lactalbumin
[2] = system: L1210 leukaemia cells; assay: Apoptosis bioassay: L1210 cell viability by Trypan blue exclusion; format: cell-based, mouse; conditions: for loss of cell viability: L1210, 0.3 mg/ml; for LD50: L1210 cells; for apoptosis induction / biological activity: apoptosis assay
Method: The different agonists were dissolved in cell culture medium, without fetal calf serum, and added to the cells (final volume 1 ml per well). Plates were incubated at 37° C. in 5% CO2 atmosphere and 100 μl of fetal calf serum was added to each well after 30 minutes. Cell culture medium served as a control.
Cell viability was determined by Trypan blue exclusion after six hours of incubation. For analysis, 30 μl of the cell suspension was mixed with 30 μl of a 0.2% trypan blue solution and the number of stained cells (dead cells) per 100 cells was determined by interference contrast microscopy (Ortolux II, Leitz Wetzlar, Germany).

[3] = Ca2+ titration in the presence of chromophoric chelator quin 2; format: binding; conditions: for Ca2+ binding: quin 2 titration; for Ka, calcium association constant: 2 mM Tris/HCl, chelator quin 2; for Kd: read-out: KD, calcium
Source text: To study the Ca^2+ binding equilibrium, the proteins listed in table 1 including the D87A BAMLET obtained as described in Example 7, and HAMLET, was titrated with calcium in the presence of a chromophoric chelator, quin 2, for which the absorbance at 263 nm decreases (approx. 85%) upon Ca^2+-binding. The method relies on competition for calcium between the protein and chelator, and can be used to quantitate high affinity sites (ca. 10^7-5·10^9 M^−1 at low salt, and ca. 5 10^5-1·10^8 M^−1 at 0.15 NaCl) when quin 2 is the chelator. The exact concentration of the chelator solution (in the range of 25-30 μM) was calculated from the absorbance at 239.5 nm in the presence of excess calcium (using ε239.5=4.2×10^4 L mol^−1 cm^−1 for quin 2). Lyophilised protein was dissolved in calcium free (<1 μM Ca^2+) chelator solution at a concentration of 25-30 μM. The absorbance at 263 nm (A263) was recorded for the protein/chelator solution using a UV/Vis 920 spectrophotometer (GBC Scientific Equipment Pty Ltd, Victoria, Australia). Calcium solution (3 mM CaCl2 in 2 mM Tris/HCl, pH 7.5, with or without 0.15 M NaCl) was added in portions of 4 μl. A263 was recorded after each calcium addition.
A more concentrated Ca^2+ stock (10 mM) was used at the end of the titrations of the proteins in 0.15 M NaCl. The data was analysed by least squares fitting directly to the measured quantity, absorbance versus total calcium concentration, using the CaLigator software (Andre and Linse, 2002).

[4] = system: L1210 leukaemia cells; assay: DNA fragmentation (oligonucleosome length fragments, agarose gel) in L1210 cells; format: cell-based, mouse; conditions: L1210, six hours
Method: Oligonucleosome length DNA fragments were detected by agarose gel electrophoresis. The cell suspension remaining after trypan blue (970 μl, 2×10^6/ml) was lysed in 5 mM Tris, 20 mM EDTA, 0.5% Triton X-100 pH 8.0 at 4° C. for 1 hour and centrifuged at 13,000×g for 15 minutes. DNA was ethanol precipitated over night in −20° C., treated with proteinase K and RNAse, loaded on 1.8% agarose gels and electrophoresed with constant voltage set at 50V over night. DNA fragments were visualised with ethidium bromide using a 305 nm UV-light source and photographed using Polaroid type 55 positive-negative film.

[5] = Spectroscopy (near UV CD, fluorescence, ANS) after addition of excess calcium; format: binding; conditions: excess calcium (1 mM), no spectral changes
Method: The products were then subjected to spectroscopic analysis. The proteins or protein fractions were dialyzed against doubly distilled water and lyophilised. Stock solutions were prepared by dissolving the lyophilised material in 10 mM potassium phosphate buffer at pH 7.5, and concentrations determined as the absorbance at 280 nm (A/l=C (mg/ml) where 1 mg/ml of α-lactalbumin is 70 μM). The spectra were recorded at the appropriate dilution.
Circular Dichroism (CD) spectra were obtained on a JASCO J-720 spectro-polarimeter with a JASCO PTC-343 Peltier type thermostated cell holder. Quartz cuvettes were used with 1 cm path length and spectra were recorded at 25° C. between 240 and 320 nm. […] Six scans were recorded and averaged for each spectrum. Baseline spectra were recorded with pure buffer in the cuvette and substracted from the protein spectra.
Fluorescence spectra were recorded at 25° C. on a Perkin Elmer LS-50B spectrometer using a quartz cuvette with 1 cm excitation path length. Intrinsic (tryptophan) fluorescence emission spectra were recorded between 305 and 530 nm (step 1 nm) with excitation at 295 nm. […] ANS fluorescence emission spectra were recorded at 25° C. on a Perkin Elmer LS-50B spectrometer using a quartz cuvette with 1 cm excitation path length, between 400 and 600 nm (step 1 nm) with excitation at 385 nm. […]

[6] = 5 mM Tris, 0.1 mM EDTA, pH 7.2, 298 K, CD 270 nm
[7] = 10 mM Tris/HCl, no salt, pH 7.5, 298 K, ITC
[8] = L1210, six hours, 0.3 mg/ml, reduced from 99%
[9] = L1210, 6 hours' exposure, 0.5 mg/ml, from 98%

For α-lac bovine: bovine α-lactalbumin, the “Ka” value [1, 6] is given as 2.5e+08 M⁻¹, the “Ka” value [1, 7] is given as 4.3e+08 M⁻¹ and the “Ka” value ([1]; 10 mM Tris/HCl, pH 8, DSC) is given as 2.85e+08 M⁻¹. The “Ka” value ([1]; 10 mM ammonium bicarbonate, pH 7.8, EGTA, fluorescence) was 4.8e+07 M⁻¹, the “Ka” value ([1]; 20 mM Tris, pH 7.5, 298 K, fluorescence, Hummel & Dryer method) was 2.7e+06 M⁻¹ and the “Ka” value ([1]; 20 mM Tris, pH 7.5, 298 K, microcalorimetry) was 2.5e+06 M⁻¹. The “Ka” value ([1]; 50 mM Hepes, pH 8, 293 K, fluorescence) was 4e+08 M⁻¹, the “Ka” value ([1]; 50 mM Hepes, pH 8, 310 K, fluorescence) was 2e+07 M⁻¹ and the “Ka” value ([1]; H2O, 100 mM KCl, pH 7, 294 K, EDTA, 43Ca-NMR) was 2e+07 M⁻¹. For the same molecule, the “Ka” value ([1]; H2O, 100 mM KCl, pH 8, 294-298 K, EGTA 13C-NMR) was 2e+07 M⁻¹.

For BAMLET, the “loss of cell viability” value [2] was “equally sensitive”, the cell viability ([2]; L1210, 6 hours' exposure, reduced from 98%, concentration not given) was 4% and the cell viability [2, 8] was 12%. For the same molecule, the LD50 [2] was 0.2 mg/mL, the “Ca2+ binding” value [3] was “shown to bind Ca^2+” and the “DNA fragmentation” value [4] was “stimulated the formation of the characteristic DNA ladder; also recorded: induces DNA fragmentation”.

B1: D87A: bovine α-lactalbumin with aspartic acid at position 87 substituted by alanine (protein, UniProt P00711 20-142, looked up, variant D87A)
Alpha-lactalbumin: EQLTKCEVFRELKDLKGYGGVSLPEWVCTTFHTSGYDTQAIVQNNDSTEYGLFQINNKIWCKDDQNPHSSNICNISCDKFLDDDLTADIMCVKKILDKVGINYWLAHKALCSEKLDQWLCEKL
For B1, the “calcium binding” value [5] is listed as “did not bind calcium”, the “apoptosis induction / biological activity” value [2] is listed as “biologically inactive” and the “calcium binding” value [1] is listed as “totally abolished calcium binding”.

B2: HAMLET (protein, UniProt P00709 20-142, looked up)
Alpha-lactalbumin: KQFTKCELSQLLKDIDGYGGIALPELICTMFHTSGYDTQAIVENNESTEYGLFQISNKLWCKSSQVPQSRNICDISCDKFLDDDITDDIMCAKKILDIKGIDYWLAHKALCTEKLEQWLCEKL
modifications: complex with oleic acid
With B2 the “loss of cell viability” value [2] was “died rapidly”, the “apoptosis induction” value ([2]; L1210, HAMLET 0.3 mg (0.3 mg/ml)) was “induced apoptosis; also recorded: sufficient to kill the cells by apoptosis” and the cell viability [2, 8] was 0%. For the same molecule, the LD50 [2] was 0.2 mg/mL, the “apoptosis induction / biological activity” value [2] was “cause apoptosis” and the “Ka, calcium association constant” value ([3]; 150 mM NaCl (physiological salt)) was 5.3.10^6 M^−1 and 5.3 · 10^6 M^−1. The “Ka, calcium association constant” value ([3]; low salt (no added salt)) was 5.9e+09 M⁻¹ and 5.9e+08 M⁻¹, the Kd ([3]; low salt) was 1.7 nM and the “calcium affinity, times lower than α-lactalbumin” value ([3]; no salt added) was 3 times. For the same molecule, the “calcium affinity, times lower than α-lactalbumin” value ([3]; physiological salt concentration) was 1.6 times, the Kd ([3]; physiological salt, 0.15 M NaCl) was 190 nM and the “Ca2+ binding” value [3] was “shown to bind Ca^2+”. For the same molecule, the “DNA fragmentation” value [4] was “DNA fragmentation was induced” and the “DNA fragmentation” value ([4]; listed as C18:1:9cis complex) was “DNA fragmentation was observed”.

B3: D87A-BAMLET: protein-lipid complex of D87A mutant bovine α-lactalbumin eluted from C18:1 conditioned column (protein, UniProt P00711 20-142, looked up, variant D87A)
Alpha-lactalbumin: EQLTKCEVFRELKDLKGYGGVSLPEWVCTTFHTSGYDTQAIVQNNDSTEYGLFQINNKIWCKDDQNPHSSNICNISCDKFLDDDLTADIMCVKKILDKVGINYWLAHKALCSEKLDQWLCEKL
modifications: complex with C18:1 fatty acid
notes: protein-lipid complex of D87A mutant bovine α-lactalbumin eluted from C18:1 conditioned column
In the case of B3, the cell viability [2, 9] is reported as 13%, the LD50 [2] is reported as 0.4 mg/mL and the “Ca2+ binding” value [3] is reported as “no difference compared to the titration of quin 2 alone; also recorded: does not bind Ca^2+”. The “DNA fragmentation” value [4] was “induced DNA fragmentation similar to the BAMLET control”.

B4: D87N-BAMLET: protein-lipid complex of D87N mutant bovine α-lactalbumin eluted from C18:1 conditioned column (protein, UniProt P00711 20-142, looked up, variant D87N)
Alpha-lactalbumin: EQLTKCEVFRELKDLKGYGGVSLPEWVCTTFHTSGYDTQAIVQNNDSTEYGLFQINNKIWCKDDQNPHSSNICNISCDKFLDDDLTNDIMCVKKILDKVGINYWLAHKALCSEKLDQWLCEKL
modifications: complex with C18:1 fatty acid
notes: protein-lipid complex of D87N mutant bovine α-lactalbumin eluted from C18:1 conditioned column
In the case of B4, the cell viability [2, 9] is reported as 17%, the LD50 [2] is reported as 0.4 mg/mL and the “DNA fragmentation” value [4] is reported as “induced DNA fragmentation similar to the BAMLET control”.

B5: C18:1:11cis complex: complex of apo-α-lactalbumin with C18:1:11cis fatty acid eluted after 1M NaCl (protein, UniProt P00709 20-142, looked up)
Alpha-lactalbumin: KQFTKCELSQLLKDIDGYGGIALPELICTMFHTSGYDTQAIVENNESTEYGLFQISNKLWCKSSQVPQSRNICDISCDKFLDDDITDDIMCAKKILDIKGIDYWLAHKALCTEKLEQWLCEKL
modifications: complex with C18:1:11cis fatty acid
notes: complex of apo-α-lactalbumin with C18:1:11cis fatty acid eluted after 1M NaCl
For B5, the cell viability [2, 8] was 0%, the “apoptosis induction / biological activity” value [2] was “cause apoptosis” and the “DNA fragmentation” value [4] was “DNA fragmentation was observed”.

B6: D87N: bovine α-lactalbumin with aspartic acid at position 87 substituted by asparagine (protein, UniProt P00711 20-142, looked up, variant D87N)
Alpha-lactalbumin: EQLTKCEVFRELKDLKGYGGVSLPEWVCTTFHTSGYDTQAIVQNNDSTEYGLFQINNKIWCKDDQNPHSSNICNISCDKFLDDDLTNDIMCVKKILDKVGINYWLAHKALCSEKLDQWLCEKL
In the case of B6, the “apoptosis induction / biological activity” value [2] is listed as “biologically inactive” and the “calcium binding” value [1] is listed as “still bound calcium but with lower affinity”.

B7: αlac goat: goat α-lactalbumin (protein, UniProt P00712 20-142, looked up)
Alpha-lactalbumin: EQLTKCEVFQKLKDLKDYGGVSLPEWVCTAFHTSGYDTQAIVQNNDSTEYGLFQINNKIWCKDDQNPHSRNICNISCDKFLDDDLTDDIVCAKKILDKVGINYWLAHKALCSEKLDQWLCEKL
For B7, the “Ka” value [1, 6] is given as 2.8e+08 M⁻¹ and the “Ka” value [1, 7] is given as 5.7e+08 M⁻¹.
